According to publication PMC3923656 (Journal of cellular biochemistry, 2009):

Molecular target: T1, GST-Hoxa1-993 (mouse, UniProt P09022 1-331)
T1 sequence (looked up): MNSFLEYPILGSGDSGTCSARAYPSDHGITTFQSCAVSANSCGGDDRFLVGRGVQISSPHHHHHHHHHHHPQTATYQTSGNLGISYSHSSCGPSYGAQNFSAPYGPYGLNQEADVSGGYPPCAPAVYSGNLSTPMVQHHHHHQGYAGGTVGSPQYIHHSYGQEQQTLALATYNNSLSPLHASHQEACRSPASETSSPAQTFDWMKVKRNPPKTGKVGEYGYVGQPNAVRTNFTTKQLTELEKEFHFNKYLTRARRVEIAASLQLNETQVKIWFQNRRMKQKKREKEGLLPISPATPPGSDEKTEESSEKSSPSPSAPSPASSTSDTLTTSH
Test: pull-down

- fold bound over GST alone: 8 fold
B1: Hoxa1-399, [35S]-labeled, in vitro translated (natural protein, mouse, UniProt P09022-2 1-133, looked up)
chain: MNSFLEYPILGSGDSGTCSARAYPSDHGITTFQSCAVSANSCGGDDRFLVGRGVQISSPHHHHHHHHHHHPQTATYQTSGNLGISYSHSSCGPSYGAQNFSAPYGPYGLNQEADPPRSLSFPCFRDVFSSADL
modifications: [35S]-cysteine radiolabel
